Patent US20250041418A1

Target: anti-EGFR antibody (Cetuximab)
Assay: cell-based or functional assay

For “CD16a, exogenously expressed on iNK cells”, the cytotoxic activity (ADCC activity) against A549 cells expressing EGFR, LDH assay, 4 hr co-culture in the presence of Cetuximab (fold against control iNK cells) was 2.
